Target: specific HAs not engaged in ELISA (soluble HA ectodomains) (influenza virus)
Assay: ELISA

CR8071 showed a Kd of 0.35 nM.
